1 protein from paper PMC7664933, “Enzyme Properties of a Laccase Obtained from the Transcriptome of the Marine-Derived Fungus Stemphylium lucomagnoense” (International Journal of Molecular Sciences, 2020) can be followed below.

Holding throughout (experiment): spectrophotometric oxidation assay, Michaelis-Menten fit
Holding throughout (assay type): biochemical, Stemphylium lucomagnoense

Substrate in series [1]: CCn1c(=NN=c2sc3cc(S(=O)(=O)O)ccc3n2CC)sc2cc(S(=O)(=O)O)ccc21
The note with it: 50 mM sodium acetate, pH 4.0, 30 °C, free enzyme, pH 4.0. The text has this:
(§1) spectrophotometric oxidation assay, Michaelis-Menten fit on SlLac2

Substrate in series [2]: COc1cc(C=NN=Cc2cc(OC)c(O)c(OC)c2)cc(OC)c1O
To be noted: 50 mM sodium acetate, pH 6.0, 30 °C, free enzyme, pH 6.0.
Excerpt: as §1

Substrate in series [3]: COc1cccc(OC)c1O
To be noted: 50 mM sodium acetate, pH 5.0, 30 °C, free enzyme, pH 5.0.
Excerpt: as §1

B1: SlLac2 (Stemphylium lucomagnoense) (protein)
chain: AVLPVELPNPAPFTPKRDGLEERQSPASCINVGHTPKTRHCWAQGFTSSTDMYTSWPNTGVIRSYNLRLENTTCNPDGAGSRVCLLINGRFLGPTIVANWGDTIRVTVRNNLQSNGTSIHWHGFRMLNKNIQDGVNGITECALAPGDFKTYQFQATEYGTTWYHSHFSHQYGDGVVGTVIVNGPATANYDEDLGVMPITDWYYNTAFQAASIAFQNGQAGLGPPVGDNILINGTAKNAAGGGAWNRVTIQAGKRYRLRLVNTAVDTNMLVNLDGHPFQVIATDFVPINPYNTTHLQIGIGQRYDVIINANQTAGNYWFRATADGLCQSRNAREGRAIFTYQGQPVADPTSTAPTVPFTACLDPVTTPKIVKNVPSSTFAAQAKNLPVAFGPVAANGNTVLWTINGTSMIIDPGKPTIKYVAENNNSFPQSYNVVKVPATSASTWTYWVIQQAVGAPPIAHPIHLHGHDSYILGAGDGQFNAATHFSQLRFTNPPRRDVSQLKGNGWLVIAYPTDNPGAWLMHCHIAFHVGMGLSVQFLERKQQIVLPATGSEWYNNCNNWAAYKAGNTDVWPQDDSGLKKRWPPLIEDGSVL
notes: full-length mature laccase (592 residues; precursor 613 with 21-residue signal peptide replaced by A. niger glucoamylase 24-residue prepropeptide, correctly cleaved off); codon-optimised synthetic gene; secreted from Aspergillus niger D15#26; no tag; N-glycosylated, about 75 kDa by SDS-PAGE
The term Km denotes the substrate concentration at which the rate is half of its maximum. What is called kcat is the number of substrate molecules converted per active site and unit of time at saturation. As usually defined, the kcat/Km is the turnover number divided by the Michaelis constant. As to B1, the Km in series [1] turned out to be 20.6 ± 3.9 µM; in series [2], 3.5 ± 0.57 µM; in series [3], 24 ± 3.9 µM. In addition, the kcat was 0.153 ± 0.0026 s⁻¹ in series [1], 0.0074 ± 0.0002 s⁻¹ in series [2] and 0.0059 ± 0.0003 s⁻¹ in series [3]. Besides, the kcat/Km in series [1] was 7420 M⁻¹ s⁻¹; in series [2], 2110 M⁻¹ s⁻¹; in series [3], 240 M⁻¹ s⁻¹.
